Test results: article PMC10326918

Molecular target: Concanavalin A (Canavalia ensiformis)
Test: native MS; static nESI under native-like conditions, 200 mM ammonium acetate pH 6.8, 5 uM monomer; tetramer [M + 21H]21+ ions (m/z 4901) selected with the quadrupole, then 193 nm UVPD or HCD, read by Orbitrap or orthogonal TOF/TPX3; tetramer dissociates to monomers and trimers

stoichiometry N: 4
Substance: Concanavalin A (natural protein)
